Measurements published in patent US20180273635A1 (Zymeworks, published 2018).
Read-outs that look alike come from different tables or passages of the source.

Tests used:
[1] = target: T1, HER2 expressed on the surface of cells (human, UniProt P04626 23-1255); test: flow cytometry on MCF7 cells (low HER2), n=1
T1 construct: whole, on cells; also called ErbB2
Experimental: (§1) Binding of the test antigen-binding constructs to the surface of HER2+ cells was determined by flow cytometry. Cells were washed with PBS and resuspended in DMEM at 1×10⁵ cells/100 μl. 100 μl cell suspension was added into each microcentrifuge tube, followed by 10 μl/tube of the antigen-binding constructs. The tubes were incubated for 2 hr at 4° C. on a rotator. The microcentrifuge tubes were centrifuged for 2 min 2000 RPM at room temperature and the cell pellets washed with 500 μl media. Each cell pellet was resuspended in 100 μl of fluorochrome-labelled secondary antibody diluted in media to 2 μg/sample. The samples were then incubated for lhr at 4° C. on a rotator. After incubation, the cells were centrifuged for 2 min at 2000 rpm and washed in media. The cells were resuspended in 500 μl media, filtered, transferred to a tube containing 5 μl propidium iodide (PI) and analyzed on a BD LSR II flow cytometer according to the manufacturer's instructions. The B50 of the tested antigen-binding constructs was assessed by FACS with data analysis and curve fitting performed in GraphPad Prism. The experiment was carried out once (n=1) in SKBr3 cells, and twice (n=2) in SKOV3, MCF7, and BT-474 cells.
(§2) The experiment was performed once (n=1) in each cell line.

[2] = target: T1, HER2 expressed on the surface of cells; test: flow cytometry on MCF7 cells (low HER2), n=1; B50 = concentration at 50% of Bmax
Experimental: as §1, §2

[3] = target: T1, HER2 expressed on the surface of cells; test: cell-based or functional assay
[4] = target: T1, HER2 expressed on the surface of cells; test: flow cytometry on SKBR3 cells, n=1; B50 = concentration at 50% of Bmax
Experimental: as §1, §2

[5] = target: T1, HER2 expressed on the surface of cells; test: cell-based or functional assay; remark: listed apart in the source
[6] = target: T1, HER2 expressed on the surface of cells; test: flow cytometry on BT474 cells, n=1
Experimental: as §1, §2

[7] = target: T1, HER2 expressed on the surface of cells; test: cell-based or functional assay; remark: listed apart in the source
[8] = target: T1, HER2 expressed on the surface of cells; test: cell-based or functional assay; remark: listed apart in the source
[9] = target: T1, HER2 expressed on the surface of cells; test: flow cytometry on BT474 cells, n=1; B50 = concentration at 50% of Bmax
Experimental: as §1, §2

[10] = target: T1, HER2 expressed on the surface of cells; test: cell-based or functional assay; remark: listed apart in the source
[11] = target: T1, HER2 expressed on the surface of cells; test: flow cytometry on SKBR3 cells, n=1
Experimental: as §1, §2

[12] = target: T2, Recombinant human HER2 (human, UniProt P04626 23-652); test: SPR at 25 C of the OA variant, logarithm of the association constant
T2 construct: extracellular domain; Analyte of the SPR assays; also called HER2 ECD; ECD2 of HER2
Experimental: (§3) The affinity towards HER2 ECD of the samples was measured by SPR on a Biacore T200 as follows. Between 2000 and 4000 RU of anti-human Fc injected at concentration between 5 and 10 μg/ml was immobilized on a CM5 chip using standard amine coupling. Antigen-binding constructs were captured on the anti-human Fc (injected at concentration at 0.51 microg/mL in PBST, 1 min at 10 microl/min) at response levels ranging from 120-270 RU. […] HER2 dilutions were analyzed in duplicates. Sensograms were fit globally to a 1: 1 Langmuir binding model, using the software provided with the Biacore T200. All experiments were conducted at 25° C.

[13] = target: T2, Recombinant human HER2; test: SPR at 25 C of the OA variant, equilibrium association constant
Experimental: as §3

[14] = target: T2, Recombinant human HER2; test: SPR at 25 C of the OA variant, logarithm of the association constant; remark: listed apart in the source
Experimental: as §3

[15] = target: T2, Recombinant human HER2; test: SPR at 25 C of the OA variant, equilibrium association constant; remark: listed apart in the source
Experimental: as §3

[16] = target: T2, Recombinant human HER2; test: SPR, Biacore T200, 25 C; variant captured on anti-human Fc, HER2 flowed;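 also: HER2 extracellular domain analyte run as duplicate dilutions over amine-coupled anti-Fc on a CM5 chip, rates from global sensorgram fitting with a 1:1 Langmuir model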
Experimental: as §3

[17] = target: T2, Recombinant human HER2; test: calculated from the SPR Ka ratio to WT v10013;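 also: SPR at 25 °C with constructs captured on an anti-human Fc chip and HER2 extracellular domain as analyte, kinetics fitted to a 1:1 Langmuir model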
Experimental: as §3

[18] = target: T2, Recombinant human HER2; test: SPR, 25 C; Ka ratio to WT v10013;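 also: constructs captured via anti-human Fc on CM5 chip, HER2 ECD as analyte in duplicate dilutions, sensorgrams globally fit to 1:1 Langmuir model on Biacore T200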
Experimental: as §3

Log Ka [12] | Ka [13] [M⁻¹] | Log Ka [14] | Ka [15] [M⁻¹] | Kd [16] [nM] | koff [16] [s⁻¹] | kon [16] [M⁻¹ s⁻¹] | ΔΔG [17] [kcal/mol] | Ka, mut/Ka, WT [18] [fold] | Binder | further results
 |  |  |  |  |  |  |  |  | Variant 14023 (antibody, name in Kabat numbering, V domains shown, also called v14023) VH: EVQLVESGGGLVQPGGSLRLSCAASGFTFQDYTMDWVRQAPGKGLEWVGDVNPNSGGSIYNQRFKGRFTFSVDRSWNTLYLQMNSLRAEDTAVYYCARNLGPWFYFDYWGQGTLVTVSS VL: DIQMTQSPSSLSASVGDRVTITCKASQDVSIGVAWYQQKPGKAPKLLIWSASYRYTGVPSRFSGSGSGTDFTLTISSLQPEDFATYYCQQYYIYPYTFGQGTKVEIKR | Bmax [1]: 590 MFI; B50 [2]: 0.8 nM; growth inhibition IC50 (potency), BT474 cells + EGF [3]: 1.7 nM; growth inhibition span (percentage of cells killed), BT474 cells + EGF [3]: 45%; growth inhibition span ratio to WT, BT474 cells + EGF [3]: 2.5 fold; B50 [4]: 3.9 nM; growth inhibition span (percentage of cells killed), MDA-MB-175 cells [5]: 84%; Bmax [6]: 23000 MFI; growth inhibition IC50 (potency), NCI-N87 cells, 5 days [7]: 2.5 nM; growth inhibition span (percentage of cells killed), NCI-N87 cells [7]: 52%; increase in efficacy with respect to the WT, NCI-N87 cells [7]: 3.1 fold; increase in potency with respect to the WT, NCI-N87 cells [7]: 3.6 fold; growth inhibition IC50 (potency), BT474 cells [8]: 0.63 nM; growth inhibition span (percentage of cells killed), BT474 cells [8]: 35%; growth inhibition span ratio to WT, BT474 cells [8]: 3.3 fold; B50 [9]: 2 nM; growth inhibition IC50 (potency), SKBR3 cells [10]: 0.34 nM; growth inhibition span (percentage of cells killed), SKBR3 cells [10]: 32%; growth inhibition span ratio to WT, SKBR3 cells [10]: 1.9 fold; Bmax [11]: 29000 MFI
8.7 | 4.7e+08 | 8.7 | 4.7e+08 |  |  |  |  |  | Variant 10014 (antibody, Fc substitutions are in EU numbering; also called v10014) heavy: EVQLVESGGGLVQPGGSLRLSCAASGFTFADYTMDWVRQAPGKGLEWVADVNPNSGGSIYNQRFKGRFTLSVDRSKNTLYLQMNSLRAEDTAVYYCARNLGPSFYFDYWGQGTLVTVSSASTKGPSVFPLAPSSKSTSGGTAALGCLVKDYFPEPVTVSWNSGALTSGVHTFPAVLQSSGLYSLSSVVTVPSSSLGTQTYICNVNHKPSNTKVDKKVEPKSCDKTHTCPPCPAPELLGGPSVFLFPPKPKDTLMISRTPEVTCVVVDVSHEDPEVKFNWYVDGVEVHNAKTKPREEQYNSTYRVVSVLTVLHQDWLNGKEYKCKVSNKALPAPIEKTISKAKGQPREPQVYVYPPSRDELTKNQVSLTCLVKGFYPSDIAVEWESNGQPENNYKTTPPVLDSDGSFALVSKLTVDKSRWQQGNVFSCSVMHEALHNHYTQKSLSLSPG light: not shown Fc: not shown | 
9.4 | 2.5e+09 | 9.4 | 2.5e+09 | ~0.4 | ~2.6e-05 | 65000 | -2.2 | ~41 | Variant 14025 (antibody, human IgG1, kappa, OA (one-armed) format; clones 8775, 1811, 4372; also called v14025) heavy: EVQLVESGGGLVQPGGSLRLSCAASGFTFQDYTMDWVRQAPGKGLEWVADVNPNSGGSIYNQRFKGRFTLSVDRSWNTLYLQMNSLRAEDTAVYYCARNLGPSFYFDYWGQGTLVTVSSASTKGPSVFPLAPSSKSTSGGTAALGCLVKDYFPEPVTVSWNSGALTSGVHTFPAVLQSSGLYSLSSVVTVPSSSLGTQTYICNVNHKPSNTKVDKKVEPKSCDKTHTCPPCPAPELLGGPSVFLFPPKPKDTLMISRTPEVTCVVVDVSHEDPEVKFNWYVDGVEVHNAKTKPREEQYNSTYRVVSVLTVLHQDWLNGKEYKCKVSNKALPAPIEKTISKAKGQPREPQVYVYPPSRDELTKNQVSLTCLVKGFYPSDIAVEWESNGQPENNYKTTPPVLDSDGSFALVSKLTVDKSRWQQGNVFSCSVMHEALHNHYTQKSLSLSPG light: not shown not shown | 
9.7 | 5.3e+09 | 9.7 | 5.3e+09 | ~0.19 | ~1.4e-05 | 73000 | -2.7 | ~102 | Variant 14043 (antibody, human IgG1, kappa, OA (one-armed) format; clones 8775, 7919, 4372; also called v14043) heavy: EVQLVESGGGLVQPGGSLRLSCAASGFTFQDYTMDWVRQAPGKGLEWVADVNPNSGGSIYNQRFKGRFTLSVDRSWNTLYLQMNSLRAEDTAVYYCARNLGPSFYFDYWGQGTLVTVSSASTKGPSVFPLAPSSKSTSGGTAALGCLVKDYFPEPVTVSWNSGALTSGVHTFPAVLQSSGLYSLSSVVTVPSSSLGTQTYICNVNHKPSNTKVDKKVEPKSCDKTHTCPPCPAPELLGGPSVFLFPPKPKDTLMISRTPEVTCVVVDVSHEDPEVKFNWYVDGVEVHNAKTKPREEQYNSTYRVVSVLTVLHQDWLNGKEYKCKVSNKALPAPIEKTISKAKGQPREPQVYVYPPSRDELTKNQVSLTCLVKGFYPSDIAVEWESNGQPENNYKTTPPVLDSDGSFALVSKLTVDKSRWQQGNVFSCSVMHEALHNHYTQKSLSLSPG light: not shown not shown | 
9.6 | 4e+09 | 9.6 | 4e+09 | ~0.25 | ~2.1e-05 | 85000 | -2.5 | ~67 | Variant 14024 (antibody, human IgG1, kappa, OA (one-armed) format; clones 7844, 7919, 4372; also called v14024) heavy: EVQLVESGGGLVQPGGSLRLSCAASGFTFTDYTMDWVRQAPGKGLEWVADVNPNSGGSIYNQRFKGRFTLSVDRSWNTLYLQMNSLRAEDTAVYYCARNLGPSFYFDYWGQGTLVTVSSASTKGPSVFPLAPSSKSTSGGTAALGCLVKDYFPEPVTVSWNSGALTSGVHTFPAVLQSSGLYSLSSVVTVPSSSLGTQTYICNVNHKPSNTKVDKKVEPKSCDKTHTCPPCPAPELLGGPSVFLFPPKPKDTLMISRTPEVTCVVVDVSHEDPEVKFNWYVDGVEVHNAKTKPREEQYNSTYRVVSVLTVLHQDWLNGKEYKCKVSNKALPAPIEKTISKAKGQPREPQVYVYPPSRDELTKNQVSLTCLVKGFYPSDIAVEWESNGQPENNYKTTPPVLDSDGSFALVSKLTVDKSRWQQGNVFSCSVMHEALHNHYTQKSLSLSPG light: not shown not shown | 
9.7 | 4.7e+09 | 9.7 | 4.7e+09 | ~0.21 | ~1.6e-05 | 73000 | -2.6 | ~77 | Variant 14055 (antibody, human IgG1, kappa, OA (one-armed) format; clones 8784, 7919, 4372; also called v14055) heavy: EVQLVESGGGLVQPGGSLRLSCAASGFTFQDYTMDWVRQAPGKGLEWVADVNPNSGGSIYNQRFKGRFTLSVDRSWNTLYLQMNSLRAEDTAVYYCARNLGPWFYFDYWGQGTLVTVSSASTKGPSVFPLAPSSKSTSGGTAALGCLVKDYFPEPVTVSWNSGALTSGVHTFPAVLQSSGLYSLSSVVTVPSSSLGTQTYICNVNHKPSNTKVDKKVEPKSCDKTHTCPPCPAPELLGGPSVFLFPPKPKDTLMISRTPEVTCVVVDVSHEDPEVKFNWYVDGVEVHNAKTKPREEQYNSTYRVVSVLTVLHQDWLNGKEYKCKVSNKALPAPIEKTISKAKGQPREPQVYVYPPSRDELTKNQVSLTCLVKGFYPSDIAVEWESNGQPENNYKTTPPVLDSDGSFALVSKLTVDKSRWQQGNVFSCSVMHEALHNHYTQKSLSLSPG light: not shown not shown | 
9.1 | 1.3e+09 | 9.1 | 1.3e+09 | 0.79 | 3.9e-05 | 49000 | -1.8 | 21 | Variant 14032 (antibody, human IgG1, kappa, OA (one-armed) format; clones 8780, 1811, 4372; also called v14032) heavy: EVQLVESGGGLVQPGGSLRLSCAASGFTFQDYTMDWVRQAPGKGLEWVADVNPNSGGSIYNQRFKGRFTLSVDRSKNTLYLQMNSLRAEDTAVYYCARNLGPWFYFDYWGQGTLVTVSSASTKGPSVFPLAPSSKSTSGGTAALGCLVKDYFPEPVTVSWNSGALTSGVHTFPAVLQSSGLYSLSSVVTVPSSSLGTQTYICNVNHKPSNTKVDKKVEPKSCDKTHTCPPCPAPELLGGPSVFLFPPKPKDTLMISRTPEVTCVVVDVSHEDPEVKFNWYVDGVEVHNAKTKPREEQYNSTYRVVSVLTVLHQDWLNGKEYKCKVSNKALPAPIEKTISKAKGQPREPQVYVYPPSRDELTKNQVSLTCLVKGFYPSDIAVEWESNGQPENNYKTTPPVLDSDGSFALVSKLTVDKSRWQQGNVFSCSVMHEALHNHYTQKSLSLSPG light: not shown not shown | 
8.8 | 6.2e+08 | 8.8 | 6.2e+08 | 1.6 | 7.4e-05 | 46000 | -1.5 | 12 | Variant 14050 (antibody, human IgG1, kappa, OA (one-armed) format; clones 8780, 7919, 4372; also called v14050) heavy: EVQLVESGGGLVQPGGSLRLSCAASGFTFQDYTMDWVRQAPGKGLEWVADVNPNSGGSIYNQRFKGRFTLSVDRSKNTLYLQMNSLRAEDTAVYYCARNLGPWFYFDYWGQGTLVTVSSASTKGPSVFPLAPSSKSTSGGTAALGCLVKDYFPEPVTVSWNSGALTSGVHTFPAVLQSSGLYSLSSVVTVPSSSLGTQTYICNVNHKPSNTKVDKKVEPKSCDKTHTCPPCPAPELLGGPSVFLFPPKPKDTLMISRTPEVTCVVVDVSHEDPEVKFNWYVDGVEVHNAKTKPREEQYNSTYRVVSVLTVLHQDWLNGKEYKCKVSNKALPAPIEKTISKAKGQPREPQVYVYPPSRDELTKNQVSLTCLVKGFYPSDIAVEWESNGQPENNYKTTPPVLDSDGSFALVSKLTVDKSRWQQGNVFSCSVMHEALHNHYTQKSLSLSPG light: not shown not shown | 
